The source of these data is patent publication US20120316071A1 (published 2012).

In experiment [1] the target is T1, rHuman EGF R/Fc Chimera, CF (R&D Systems Cat#344-ER) (human, UniProt P00533 25-645).
T1 construct: Bought recombinant protein; also called epidermal growth factor receptor; Fc part of the bought chimera not given
Briefly: ECL multispot (MSD) assay, antigen spotted on plate; blank spot of this row 511.

Experiment [2] addresses T2, rHuman Erythropoietin R/Fc Chimera, CF (R&D Systems Cat#963-ER) (human, UniProt P19235 25-250).
T2 construct: Bought recombinant protein; also called EPO R; EPO R/Fc; Fc part of the bought chimera not given
T2 sequence (looked up): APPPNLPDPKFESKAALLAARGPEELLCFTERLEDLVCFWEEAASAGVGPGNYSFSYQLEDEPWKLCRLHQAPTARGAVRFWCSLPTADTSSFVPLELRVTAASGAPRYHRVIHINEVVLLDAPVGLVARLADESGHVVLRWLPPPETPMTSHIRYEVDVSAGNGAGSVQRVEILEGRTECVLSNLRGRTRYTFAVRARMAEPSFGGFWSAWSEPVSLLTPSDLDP
Described as above.

The target in experiment [3] is T3, rHuman HGF R/c-MET/Fc Chimera, CF (R&D Systems Cat#358-MT/CF) (human, UniProt P08581 25-932).
T3 construct: Bought recombinant protein; also called HGF R/Fc; hepatocyte growth factor receptor; Fc part of the bought chimera not given
The description is as above.

For experiment [4], the target named is T4, Recombinant Human DLL4 (R&D Systems Cat#1506-D4/CF) (human, UniProt Q9NR61 27-524).
T4 construct: Bought recombinant protein; also called delta-like protein 4; rHuman DLL4
The experiment is described as above.

Experiment [5] addresses T5, rHuman P-Cadherin/Fc Chimera, CF (R&D Systems Cat#861-PC) (human, UniProt P22223 108-654).
T5 construct: Bought recombinant protein; Fc part of the bought chimera not given
The experiment is described as above.

Experiment [6] has as its target T6, rHuman CD44/Fc Chimera, CF (R&D Systems Cat#3660-CD) (human, UniProt P16070 21-220).
T6 construct: Bought recombinant protein; Fc part of the bought chimera not given
The experiment is described as above.

Experiment [7] has as its target T7, rHuman ErbB2/Fc Chimera, CF (R&D Systems Cat#1129-ER) (human, UniProt P04626 23-652).
T7 construct: Bought recombinant protein; also called human epidermal growth factor 2 receptor; Fc part of the bought chimera not given
Described as above.

For experiment [8], the target named is T8, rHuman IGF-1 sR, (IGF-1 sR), CF (R&D Systems Cat#391-GR) (human, UniProt P08069 31-932).
T8 construct: Bought recombinant soluble receptor; also called insulin-like growth factor-1 soluble receptor
The description is as above.

The target of experiment [9] is T9, rHuman Notch-1/Fc Chimera, CF (R&D Systems Cat#3647-TK) (human, UniProt P46531 19-526).
T9 construct: Bought recombinant protein; Fc part of the bought chimera not given
The experiment is described as above.

Experiment [10] has as its target T10, rHuman IGF-1 sR, (IGF-1 sR), CF (human, UniProt P08069 31-932).
T10 construct: Bought from R&D Systems as a soluble receptor; also called insulin-like growth factor-1 soluble receptor
Kind of experiment: ECL multispot (MSD) assay, antigen spotted on the plate, Fab in solution; blank spot of the same well 298.

Experiment [11] deals with T11, rHuman Erythropoietin R/Fc Chimera, CF (human, UniProt P19235 25-250).
T11 construct: Bought from R&D Systems; also called EPO R; EPO R/Fc; Fc part of the bought chimera not given
T11 sequence (looked up): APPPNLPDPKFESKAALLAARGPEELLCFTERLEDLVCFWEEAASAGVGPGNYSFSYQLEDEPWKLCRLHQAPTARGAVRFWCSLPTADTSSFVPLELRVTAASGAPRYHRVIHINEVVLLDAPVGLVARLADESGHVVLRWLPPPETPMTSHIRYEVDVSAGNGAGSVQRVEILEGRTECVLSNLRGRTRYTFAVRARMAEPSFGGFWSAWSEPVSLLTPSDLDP
Described as above.

For experiment [12], the target named is T12, rHuman CD44/Fc Chimera, CF (human, UniProt P16070 21-220).
T12 construct: Bought from R&D Systems; Fc part of the bought chimera not given
Described as above.

Experiment [13] has as its target T13, Recombinant Human DLL4 (human, UniProt Q9NR61 27-524).
T13 construct: Bought from R&D Systems; also called delta-like protein 4; rHuman DLL4
The description is as above.

Experiment [14] concerns the target T14, rHuman P-Cadherin/Fc Chimera, CF (human, UniProt P22223 108-654).
T14 construct: Bought from R&D Systems; Fc part of the bought chimera not given
The experiment is described as above.

In experiment [15] the target is T15, rHuman Notch-1/Fc Chimera, CF (human, UniProt P46531 19-526).
T15 construct: Bought from R&D Systems; Fc part of the bought chimera not given
The experiment is described as above.

Experiment [16] concerns the target T16, rHuman EGF R/Fc Chimera, CF (human, UniProt P00533 25-645).
T16 construct: Bought from R&D Systems; also called epidermal growth factor receptor; Fc part of the bought chimera not given
Described as above.

The target of experiment [17] is T17, rHuman ErbB2/Fc Chimera, CF (human, UniProt P04626 23-652).
T17 construct: Bought from R&D Systems; also called human epidermal growth factor 2 receptor; Fc part of the bought chimera not given
The experiment is described as above.

The target in experiment [18] is T18, rHuman HGF R/c-MET/Fc Chimera, CF (human, UniProt P08581 25-932).
T18 construct: Bought from R&D Systems; also called HGF R/Fc; hepatocyte growth factor receptor; Fc part of the bought chimera not given
The description is as above.

For experiment [19], the target named is T1, rHuman EGF R/Fc Chimera, CF (R&D …). Kind of experiment: ECL multispot (MSD) assay, antigen spotted on plate; blank spot of this row 294.
Experiment [20] addresses T2, rHuman Erythropoietin R/Fc Chimera, CF …. Described as above.
Experiment [21] deals with T3, rHuman HGF R/c-MET/Fc Chimera, CF (R&D …). Described as above.
In experiment [22] the target is T4, Recombinant Human DLL4 (R&D Systems …). The experiment is described as above.
Experiment [23] concerns the target T5, rHuman P-Cadherin/Fc Chimera, CF (R&D …). The experiment is described as above.
The target of experiment [24] is T6, rHuman CD44/Fc Chimera, CF (R&D Systems …). The description is as above.
The target in experiment [25] is T7, rHuman ErbB2/Fc Chimera, CF (R&D …). Described as above.
Experiment [26] deals with T8, rHuman IGF-1 sR, (IGF-1 sR), CF (R&D …). Described as above.
The target in experiment [27] is T9, rHuman Notch-1/Fc Chimera, CF (R&D …). The description is as above.

T3 sequence (P08581 25-932, change not shown): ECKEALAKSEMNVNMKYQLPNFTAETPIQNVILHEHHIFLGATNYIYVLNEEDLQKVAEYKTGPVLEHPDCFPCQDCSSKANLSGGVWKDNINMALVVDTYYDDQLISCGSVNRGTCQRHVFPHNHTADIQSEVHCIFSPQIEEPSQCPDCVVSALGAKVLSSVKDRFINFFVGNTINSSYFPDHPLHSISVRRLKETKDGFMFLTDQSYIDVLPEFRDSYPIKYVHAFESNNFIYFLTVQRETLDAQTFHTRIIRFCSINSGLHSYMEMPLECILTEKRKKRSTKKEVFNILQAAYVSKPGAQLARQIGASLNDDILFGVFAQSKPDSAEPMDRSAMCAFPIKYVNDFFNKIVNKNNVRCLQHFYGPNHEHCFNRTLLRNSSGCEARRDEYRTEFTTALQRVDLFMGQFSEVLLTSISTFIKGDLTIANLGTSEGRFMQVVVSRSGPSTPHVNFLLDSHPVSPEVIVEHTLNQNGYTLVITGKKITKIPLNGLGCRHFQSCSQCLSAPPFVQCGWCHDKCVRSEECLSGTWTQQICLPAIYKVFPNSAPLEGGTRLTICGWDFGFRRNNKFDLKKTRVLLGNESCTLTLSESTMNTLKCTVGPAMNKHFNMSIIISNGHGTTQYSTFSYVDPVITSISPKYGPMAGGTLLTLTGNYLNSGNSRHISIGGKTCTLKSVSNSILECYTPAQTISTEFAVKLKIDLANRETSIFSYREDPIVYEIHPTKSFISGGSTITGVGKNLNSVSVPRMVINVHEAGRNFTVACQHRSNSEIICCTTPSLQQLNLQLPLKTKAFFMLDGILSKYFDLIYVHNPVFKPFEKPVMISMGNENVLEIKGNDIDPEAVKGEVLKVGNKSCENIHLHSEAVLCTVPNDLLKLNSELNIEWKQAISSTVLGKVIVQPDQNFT
T18 sequence (P08581 25-932, change not shown): as above

B1: Fab VH1-46_IGHD6-6*01_IGHJ1*01 S102A/S103P/S104F/H111F (APFF) & L6_IGKJ1*01 S31K (Fab, V domains shown)
VH: QVQLVQSGAEVKKPGASVKVSCKASGYTFTSYYMHWVRQAPGQGLEWMGIINPSGGSTSYAQKFQGRVTMTRDTSTSTVYMELSSLRSEDTAVYYCAREEYAPFSAEYFQFWGQGTLVTVSS
VL: EIVLTQSPATLSLSPGERATLSCRASQSVSKYLAWYQQKPGQAPRLLIYDASNRATGIPARFSGSGSGTDFTLTISSLEPEDFAVYYCQQRSNWPPWTFGQGTKVEIKR
notes: Fab made in E. coli: VH cloned into Plasmid A (CH1, His6 and Flag tags), kappa VL into Plasmid C (kappa CL); also called APFF / S31K
In the case of B1, the ECL signal came to 355 in experiment [1]; 522 in experiment [2]; 221 in experiment [3]; 179000 in [4]; 471 in experiment [5]; 370 in experiment [6]. Further, the ECL signal in experiment [7] stood at 262; in experiment [8] it was 505; in experiment [9], 334.

B2: Fab VH1-46_IGHD6-6*01_IGHJ1*01 S102A/S103P/S104F/H111F (APFF) & L6_IGKJ1*01 S31R (Fab, V domains shown)
VH: QVQLVQSGAEVKKPGASVKVSCKASGYTFTSYYMHWVRQAPGQGLEWMGIINPSGGSTSYAQKFQGRVTMTRDTSTSTVYMELSSLRSEDTAVYYCAREEYAPFSAEYFQFWGQGTLVTVSS
VL: EIVLTQSPATLSLSPGERATLSCRASQSVSRYLAWYQQKPGQAPRLLIYDASNRATGIPARFSGSGSGTDFTLTISSLEPEDFAVYYCQQRSNWPPWTFGQGTKVEIKR
notes: Tested as an E. coli Fab; The heavy chain carries CH1 with His6 and Flag tags from plasmid A, the light chain a kappa CL from plasmid C; also called APFF / S31R; H:APFF & L6_IGKJ1*01 S31R
With B2, the ECL signal stood at 374 in experiment [10]; 465 in experiment [11]; 423 in experiment [12]; 166000 in [13]; 270 in experiment [14]; 358 in experiment [15]. For the same molecule, the values for the ECL signal in experiment [16], in experiment [17] and in experiment [18] were 331, 313 and 261, respectively.

B3: Fab VH1-46_IGHD6-6*01_IGHJ1*01 S102A/S103P/S104F/H111F (APFF) & L6_IGKJ1*01 S31N (Fab, V domains shown)
VH: QVQLVQSGAEVKKPGASVKVSCKASGYTFTSYYMHWVRQAPGQGLEWMGIINPSGGSTSYAQKFQGRVTMTRDTSTSTVYMELSSLRSEDTAVYYCAREEYAPFSAEYFQFWGQGTLVTVSS
VL: EIVLTQSPATLSLSPGERATLSCRASQSVSNYLAWYQQKPGQAPRLLIYDASNRATGIPARFSGSGSGTDFTLTISSLEPEDFAVYYCQQRSNWPPWTFGQGTKVEIKR
notes: Fab made in E. coli: VH cloned into Plasmid A (CH1, His6 and Flag tags), kappa VL into Plasmid C (kappa CL); also called APFF / S31N
Consider B3, for which the ECL signal in experiment [19] is 246; in experiment [20], 363; in experiment [21] it was 300; in experiment [22], 178000; in [23], 342; in experiment [24] it was 384. The ECL signal turned out to be 197 in [25], 379 in [26] and 267 in [27].
